Residue numbers refer to the chain shown, from its start.

Experiment [1] addresses T1, EGFR-vIII deletion mutant expressed on transfected Ba/F3 and A431 cells (UniProt P00533 25-1210).
T1 construct: whole, on cells; Deletion variant, not expressible as substitutions; also called de2-7 EGFR
Briefly: flow cytometry on Ba/F3 cells transfected with EGFR-vIII, FITC anti-human IgG F(ab')2 detection. In general terms: Flow cytometry measures light scatter and fluorescence of single cells or particles in a stream.

In experiment [2] the target is T2, purified EGFR (Sigma-Aldrich, cat no. E3641) (UniProt P00533 25-1210, limits assumed).
T2 construct: Bought preparation coated on ELISA plates
The experiment in a line: ELISA, plate coated with purified EGFR, anti-human IgG Fc-HRP detection. On the technique in general: An ELISA detects its analyte on a solid surface through an enzyme-linked reagent.

B1: Fully human IgG1,κ antibody 003 (P- or LC1006-003) (antibody, V domains shown)
VH: EVQLVESGGGLVQPGGSLRLSCAASGFTFSSYWMTWVRQAPGKGLEWVANIQQDGSEKNYLDSVKGRFTISRDNAKNSLSLQMNSLRAEDTAVYYCARTYSGFEDFWGQGTLVTVSS
VL: EIVLTQSPATLSLSPGERATLSCRASQSVSSYLAWYQQKPGQAPRLLIFDASNRATGIPARFSGSGSGTDFTLTISSLEPEDFAVYYCQQRSNWPPWTFGQGTKVEIK
notes: Human IgG1,κ; P1006-003 is the hybridoma before cloning, LC1006-003 the clone by limiting dilution; also called P1006-003
As for B1, the binding result in experiment [1] was “no binding (tested: saturating concentrations)”. The EC50 – broadly, the concentration that produces a half-maximal response – in experiment [2] came to 0.117 µg/mL.

B2: Fully human IgG1,κ antibody 008 (P- or LC1006-008) (antibody, V domains shown)
VH: B1 VH with T35S, Q52K, K58E, L61V, I70V, S80Y, F106Y
VL: B1 VL
notes: Human IgG1,κ; P1006-008 uncloned, LC1006-008 cloned hybridoma; also called P1006-008
Turning to B2, the binding result in experiment [1] is given as “no binding (tested: saturating concentrations)”. The same molecule came in with a concentration for a half-maximal effect (EC50) in experiment [2] of 2.46 µg/mL.

B3: Fully human IgG1,κ antibody 018 (P- or LC1006-018) (antibody, V domains shown)
VH: EVQLVESGGGLVQPGGSLRLSCAASGFTFSSYWMNWVRQAPGKGLEWVANIKKDGSEKYYVDSVKGRFTISRDNAKNSLYLQMNSLRAEDTAVYYCARDLGWGWGWYFDLWGRGTLVTVSS
VL: not shown
notes: Human IgG1,κ; P1006-018 uncloned, LC1006-018 cloned hybridoma; also called P1006-018
Take B3: a half-maximal response in experiment [2] (EC50) required 0.081 µg/mL.

These data come from US20110256142A1 (Genmab, published 2011).
